Source: patent publication US12102661B2

Experiments:
[1] = target: Angioensin Converting Enzyme (ACE)
[2] = target: Angioensin Converting Enzyme (ACE); remark: listed apart in the source

Row | Substance | ACE inhibitory activity (%) [1] [%] | Inhibitory activity of hydrolysate (%) [2] [%]
1 | papain hydrolysate of ginkgo protein (pool or library) |  | 73.2
2 | Ultrafiltrate of 3-10 kDa of ginkgo protein hydrolysate (pool or library) | 72 | 
3 | AS1.398 neutral protease hydrolysate of ginkgo protein (pool or library) |  | 87.4
4 | Over 10 kDa concentrated solution of ginkgo protein hydrolysate (pool or library) | 56.2 | 

More lines, now with the values ahead:

Row | ACE inhibitory activity (%) [1] [%] | Inhibitory activity of hydrolysate (%) [2] [%] | Substance
5 | 85.3 |  | Ultrafiltrate below 3 kDa of ginkgo protein hydrolysate (pool or library)
6 |  | 61.3 | trypsin hydrolysate of ginkgo protein (pool or library)
7 |  | 80.4 | Alcalase hydrolysate of ginkgo protein (pool or library)
